In the supplement of paper PMC7125110:
± gives the standard error. Fewer inactive variants are shown than the library holds.

B1: glmS ribozyme (parent)
chain: AUAAAAGCGCCAGAACUACAGAAAUGUAGUUGACGAGGAGGAGGUUUAUCGAAUUUUCGGCGGAUGCCUCCAAA

Columns and labels:
Conditions in all cases: with glucosamine-6-phosphate
[1] = variants of: B1; assay: self-cleavage kobs at 40 uM GlcN6P; higher = faster cleavage; RNA array
Method in brief: (§1)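 Tracking of barcoded ribozyme variants used a hybridised Cy3 probe at 37 °C, after in situ transcription by E. coli RNA polymerase on sequenced MiSeq chips. The flowed solution held 40 μM to 10 mM glucosamine-6-phosphate in HEPES/KCl/Mg(OAc)2 buffer, and imaging ran over ~14 h. kobs was taken from exponential decay fits of normalised per-tile medians, and kcat and KM from weighted Michaelis–Menten fits.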

[2] = variants of: B1; assay: self-cleavage kobs at 10000 uM GlcN6P; higher = faster cleavage; RNA array
Method in brief: as §1

[3] = variants of: B1; assay: self-cleavage kobs at 160 uM GlcN6P; higher = faster cleavage; RNA array
Method in brief: as §1

[4] = variants of: B1; assay: self-cleavage kobs at 2500 uM GlcN6P; higher = faster cleavage; RNA array
Method in brief: as §1

[5] = variants of: B1; assay: self-cleavage kobs at 640 uM GlcN6P; higher = faster cleavage; RNA array
Method in brief: as §1

Row | Variant | self-cleavage kobs at 40 uM GlcN6P [1] [s⁻¹] | self-cleavage kobs at 10000 uM GlcN6P [2] [s⁻¹] | self-cleavage kobs at 160 uM GlcN6P [3] [s⁻¹] | self-cleavage kobs at 2500 uM GlcN6P [4] [s⁻¹] | self-cleavage kobs at 640 uM GlcN6P [5] [s⁻¹]
1 | A33G C61U | < 1e-05 | < 1e-05 |  |  | 
2 | C11G U56G A64U | < 1e-05 |  | < 1e-05 | < 1e-05 | 
3 | U45G G62A | < 1e-05 | < 1e-05 |  | < 1e-05 | < 1e-05
4 | A53U G62C | < 1e-05 | < 1e-05 |  | < 1e-05 | < 1e-05
5 | G32A A48U C70U | < 1e-05 |  |  |  | 
6 | G7A U31A | < 1e-05 |  |  |  | < 1e-05
7 | G29U G41A C71G | < 1e-05 |  |  |  | 
8 | C16U A33G | < 1e-05 | < 1e-05 |  |  | 
9 | U30G G43A | < 1e-05 |  | < 1e-05 |  | 
10 | A48C C70A | < 1e-05 |  |  |  | < 1e-05
11 | A12C G43U C71A | < 1e-05 |  |  |  | 
12 | A6G C61U | < 1e-05 | < 1e-05 | < 1e-05 | < 1e-05 | < 1e-05
13 | A6G C50G C58G | 0.000111 ± 2.7e-05 |  | 0.000451 ± 0.0001 |  | 
14 | A39U G44A C71A | < 1e-05 |  | < 1e-05 |  | 
15 | G44U C50G | < 1e-05 | < 1e-05 |  |  | 
16 | U30A A39U G63U | < 1e-05 |  |  | < 1e-05 | < 1e-05
17 | G7U G9C C11G A12C U55A | < 1e-05 | < 1e-05 |  |  | 
18 | U30G A42G U55G | 0.000185 ± 4.5e-05 | 0.00677 ± 0.0014 |  | 0.0026 ± 0.00051 | 
19 | A15C G41A C70U | 0.000261 ± 6.2e-05 | 0.0111 ± 0.0023 |  |  | 
20 | U55C C61U C68U | < 1e-05 | < 1e-05 |  |  | 
21 | G9U U31G G32C G62A | < 1e-05 |  |  |  | 
22 | U56C C61U | < 1e-05 | < 1e-05 | < 1e-05 | < 1e-05 | < 1e-05
23 | G32U U46C G51U | < 1e-05 | < 1e-05 |  |  | 
24 | C8U G62A | < 1e-05 | 7.26e-05 ± 1.2e-05 | < 1e-05 |  | 

Row | Variant | self-cleavage kobs at 40 uM GlcN6P [1] [s⁻¹] | self-cleavage kobs at 10000 uM GlcN6P [2] [s⁻¹] | self-cleavage kobs at 160 uM GlcN6P [3] [s⁻¹] | self-cleavage kobs at 2500 uM GlcN6P [4] [s⁻¹] | self-cleavage kobs at 640 uM GlcN6P [5] [s⁻¹]
25 | A53U C70U | 0.000741 ± 6.7e-05 | 0.0335 ± 0.0084 | 0.00102 ± 0.00023 | 0.00471 ± 0.0013 | 0.00682 ± 0.0013
26 | G9U A36G A42U G44U | < 1e-05 |  |  | < 1e-05 | < 1e-05
27 | C8G C34U U55G | < 1e-05 | < 1e-05 |  |  | 
28 | U31G A39U C61U | < 1e-05 |  |  |  | 
29 | G9U C10G A48C A52G | < 1e-05 |  |  |  | 
30 | G29U C34U A42C | < 1e-05 | < 1e-05 | < 1e-05 | < 1e-05 | < 1e-05
31 | A6G G60A | < 1e-05 | < 1e-05 | < 1e-05 | < 1e-05 | < 1e-05
32 | A33U A36C C58G U69C | 4.07e-05 ± 2e-05 |  | 7.32e-05 ± 1.9e-05 |  | 
33 | C19A A53U | 0.000466 ± 8.9e-05 | 0.0123 ± 0.0028 |  |  | 0.00276 ± 0.0012
34 | G32C G40A A53C | < 1e-05 | < 1e-05 |  | < 1e-05 | 
35 | G40A A53G | 0.000243 ± 5.3e-05 | 0.0242 ± 0.0054 |  | 0.00571 ± 0.0011 | 0.0022 ± 0.0005
36 | A42U G66C | < 1e-05 |  | < 1e-05 |  | 
37 | C11U G32C U55G A64C | < 1e-05 | < 1e-05 |  |  | < 1e-05
38 | C8G C61G | < 1e-05 | < 1e-05 | < 1e-05 | < 1e-05 | < 1e-05
39 | A48G C50G C61A | 9.98e-05 ± 2.4e-05 | 6.27e-05 ± 1.9e-05 |  |  | 
40 | G7U C19A A36G A39C | < 1e-05 | < 1e-05 |  |  | 
41 | G44A G51A C67U | < 1e-05 |  |  |  | 
42 | C16U C50U | < 1e-05 | 0.000106 ± 2e-05 |  | 5.3e-05 ± 1.3e-05 | 
43 | A48G U54A C61U | < 1e-05 |  |  |  | 
44 | A6G A53C U56G | < 1e-05 |  |  |  | 
45 | U30G A36G | < 1e-05 | < 1e-05 | < 1e-05 | < 1e-05 | < 1e-05
46 | A12U G29A G41A C50A C67A | < 1e-05 |  |  |  | 
47 | A15C C70U | 0.000192 ± 1.8e-05 | 0.00871 ± 0.0019 | 0.000389 ± 4.7e-05 | 0.00537 ± 0.0012 | 0.000719 ± 7.7e-05
48 | G32C G43U U47C | < 1e-05 |  |  |  | 

Row | Variant | self-cleavage kobs at 40 uM GlcN6P [1] [s⁻¹] | self-cleavage kobs at 10000 uM GlcN6P [2] [s⁻¹] | self-cleavage kobs at 160 uM GlcN6P [3] [s⁻¹] | self-cleavage kobs at 2500 uM GlcN6P [4] [s⁻¹] | self-cleavage kobs at 640 uM GlcN6P [5] [s⁻¹]
49 | A36G G44U U45C G51A G63C U69G C70G | < 1e-05 | < 1e-05 |  |  | 
50 | A14G C16G G38U C50G C67A | 0.000102 ± 1.6e-05 | 9.71e-05 ± 2.1e-05 |  |  | 
51 | A15C U56G | 6.11e-05 ± 1.3e-05 | 0.00228 ± 0.00048 | 7.19e-05 ± 1.9e-05 | 0.0011 ± 0.00025 | 0.000276 ± 8.7e-05
52 | G13U G35C | < 1e-05 | < 1e-05 | < 1e-05 | < 1e-05 | < 1e-05
53 | G37A G38U C50G C67U | 8.1e-05 ± 3.5e-05 | 0.000315 ± 8.1e-05 |  |  | 
54 | U55A C70U | 0.00118 ± 0.00012 |  | 0.00271 ± 0.00065 |  | 0.00644 ± 0.0011
55 | A39C G62U | < 1e-05 | < 1e-05 |  | < 1e-05 | 
56 | C10G A42C U47A G59U | < 1e-05 |  |  |  | 
57 | A53G G60C | < 1e-05 | < 1e-05 |  |  | 
58 | G38A C67U C71A | < 1e-05 | < 1e-05 |  |  | 
59 | G29C U45C G62A | < 1e-05 |  |  | < 1e-05 | 
60 | A39U G40U C70U | 9.82e-05 ± 1.8e-05 | 0.00219 ± 0.00054 | 0.000392 ± 6.8e-05 | 0.00127 ± 0.0003 | 0.000466 ± 7.4e-05
61 | U31C G40U G44U U46G | < 1e-05 |  |  |  | 
62 | G38A C58A G66A | < 1e-05 | < 1e-05 |  |  | 
63 | G29U A42G U56C G63A | < 1e-05 | < 1e-05 |  |  | 
64 | A42G U49G C50U U55G G60A | < 1e-05 | < 1e-05 |  |  | 
65 | A6C A42C | < 1e-05 | < 1e-05 | < 1e-05 |  | < 1e-05
66 | A14G G59A U65G G66A | < 1e-05 |  |  | < 1e-05 | 
67 | G29A G35A C68G | 0.000947 ± 0.00027 | 0.000106 ± 3.5e-05 |  |  | 
68 | C10G G51C C58A | < 1e-05 | < 1e-05 |  |  | < 1e-05
69 | A14U A36C | < 1e-05 | < 1e-05 |  |  | < 1e-05
70 | U31C G51A | < 1e-05 | < 1e-05 |  | < 1e-05 | < 1e-05
71 | C8G U31A A36G | < 1e-05 |  |  |  | 
72 | A48G U65C | < 1e-05 | < 1e-05 |  |  | 

Row | Variant | self-cleavage kobs at 40 uM GlcN6P [1] [s⁻¹] | self-cleavage kobs at 10000 uM GlcN6P [2] [s⁻¹] | self-cleavage kobs at 160 uM GlcN6P [3] [s⁻¹] | self-cleavage kobs at 2500 uM GlcN6P [4] [s⁻¹] | self-cleavage kobs at 640 uM GlcN6P [5] [s⁻¹]
73 | G40A C50G G66C | 0.00112 ± 0.00049 | 0.00127 ± 0.00049 |  |  | 
74 | U46G U57A | < 1e-05 | 5.59e-05 ± 7.8e-06 |  |  | 
75 | A12C G43C | < 1e-05 |  | < 1e-05 |  | < 1e-05
76 | C10U G41U U56C C70U | < 1e-05 |  |  |  | 
77 | G41C C67U | < 1e-05 | < 1e-05 | < 1e-05 | < 1e-05 | < 1e-05
78 | A12U G41C C58A | < 1e-05 | < 1e-05 |  | < 1e-05 | 
79 | G40U G44C | < 1e-05 |  | < 1e-05 |  | < 1e-05
80 | A14C G29U G38U G44A A64U | < 1e-05 | < 1e-05 |  |  | 
81 | C34U G59U | < 1e-05 | < 1e-05 | < 1e-05 | < 1e-05 | < 1e-05
82 | G32C G38C | < 1e-05 |  | < 1e-05 |  | < 1e-05
83 | A42U U46C | < 1e-05 |  | < 1e-05 |  | < 1e-05
84 | G35C G63U C71A | < 1e-05 | < 1e-05 |  | < 1e-05 | 
85 | G43U C68A | 0.00235 ± 0.00036 | 0.0761 ± 0.024 | 0.00333 ± 0.00054 | 0.0175 ± 0.005 | 0.0194 ± 0.0032
86 | G29C G51U U55G | < 1e-05 | < 1e-05 |  |  | 
87 | G29U A36C G38A G40A | < 1e-05 | < 1e-05 |  | < 1e-05 | 
88 | U31C G63C | < 1e-05 | < 1e-05 | < 1e-05 |  | < 1e-05
89 | A6C C8G | < 1e-05 | < 1e-05 |  | < 1e-05 | < 1e-05
90 | C34A G40U G66A | < 1e-05 | < 1e-05 | < 1e-05 |  | 
91 | U31A U55C G63C C67G | < 1e-05 | < 1e-05 |  | < 1e-05 | 
92 | U45C A53G C67G C68A | 3.17e-05 ± 1.3e-05 | 8.22e-05 ± 1.3e-05 |  |  | 
93 | G37U C58U G63A | < 1e-05 |  |  |  | 
94 | A6C G44U G51A | < 1e-05 | < 1e-05 |  |  | 
95 | G29U G51C | < 1e-05 | < 1e-05 |  |  | < 1e-05
96 | A36G G59U | < 1e-05 | < 1e-05 | < 1e-05 | < 1e-05 | < 1e-05
